According to PMC9482650, “Quantitative fragmentomics allow affinity mapping of interactomes” (Nature Communications, 2022):
Numbering of substitutions follows the chain as printed.

T1: CARD11, Q9BXL7
T1 sequence (Q9BXL7 662-765, limits assumed, looked up): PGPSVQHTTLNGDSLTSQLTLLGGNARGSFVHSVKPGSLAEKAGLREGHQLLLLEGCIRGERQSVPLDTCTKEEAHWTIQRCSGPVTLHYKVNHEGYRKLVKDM

T2: NHERF3_3, Q5T2W1
T2 sequence (Q5T2W1 238-333, limits assumed, looked up): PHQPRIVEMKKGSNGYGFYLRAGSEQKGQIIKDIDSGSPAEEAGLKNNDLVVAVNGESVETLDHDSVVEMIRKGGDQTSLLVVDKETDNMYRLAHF

T3: DLG3_2, Q92796
T3 sequence (Q92796 221-321, limits assumed, looked up): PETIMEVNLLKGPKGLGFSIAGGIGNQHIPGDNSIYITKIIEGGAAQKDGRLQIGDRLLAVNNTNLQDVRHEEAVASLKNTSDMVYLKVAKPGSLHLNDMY

T4: LIN7A, O14910
T4 sequence (O14910 103-200, limits assumed, looked up): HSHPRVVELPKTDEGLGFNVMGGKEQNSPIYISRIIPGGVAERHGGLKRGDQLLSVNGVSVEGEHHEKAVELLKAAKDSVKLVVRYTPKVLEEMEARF

T5: LIN7C, Q9NUP9
T5 sequence (Q9NUP9 88-185, limits assumed, looked up): T4 sequence (O14910 103-200, limits assumed, looked up) with D13E, V20I, V40I, E42D, K77Q, D78G, S79K, A96S

T6: LRRC7, Q96NW7
T6 sequence (Q96NW7 1440-1537, limits assumed, looked up): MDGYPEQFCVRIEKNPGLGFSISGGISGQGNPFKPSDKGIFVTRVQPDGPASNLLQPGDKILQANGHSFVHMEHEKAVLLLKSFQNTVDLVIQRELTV

T7: DLG3_1, Q92796
T7 sequence (Q92796 125-227, limits assumed, looked up): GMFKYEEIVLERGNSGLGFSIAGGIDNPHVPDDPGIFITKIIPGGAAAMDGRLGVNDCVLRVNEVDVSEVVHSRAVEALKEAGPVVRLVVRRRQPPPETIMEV

T8: SNTB1, Q13884
T8 sequence (Q13884 107-205, limits assumed, looked up): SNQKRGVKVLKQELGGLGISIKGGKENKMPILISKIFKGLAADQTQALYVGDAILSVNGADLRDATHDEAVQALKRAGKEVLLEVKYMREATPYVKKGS

T9: MPDZ_5, O75970
T9 sequence (O75970 695-796, limits assumed, looked up): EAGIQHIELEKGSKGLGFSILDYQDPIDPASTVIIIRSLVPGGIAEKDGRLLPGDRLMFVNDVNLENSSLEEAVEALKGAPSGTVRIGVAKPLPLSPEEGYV

T10: NHERF3_1, Q5T2W1
T10 sequence (Q5T2W1 4-100, limits assumed, looked up): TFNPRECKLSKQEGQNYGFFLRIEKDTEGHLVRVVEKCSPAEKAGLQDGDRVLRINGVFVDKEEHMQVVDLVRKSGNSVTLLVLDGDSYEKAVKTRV

T11: TJP3_3, O95049
T11 sequence (O95049 375-456, limits assumed, looked up): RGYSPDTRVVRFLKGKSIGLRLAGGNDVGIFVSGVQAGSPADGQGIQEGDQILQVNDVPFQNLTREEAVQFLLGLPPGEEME


How the values were obtained:
Experiment in all cases: holdup assay
Design in all cases: key: below the threshold = too weak to quantify, mostly under pKd 3.1 to 4
Conditions in all cases: plain residues with an end cap or a label only (N-terminal biotin on a linker: ttds)
AHNAK1, Q09666 = biological target: AHNAK1, Q09666
Inadl_2, Q8NI35 = biological target: Inadl_2, Q8NI35
CARD11, Q9BXL7 = biological target: T1, CARD11, Q9BXL7
NHERF3_3, Q5T2W1 = biological target: T2, NHERF3_3, Q5T2W1
DLG3_2, Q92796 = biological target: T3, DLG3_2, Q92796
LIN7A, O14910 = biological target: T4, LIN7A, O14910
FRMPD2_2, Q68DX3 = biological target: FRMPD2_2, Q68DX3
PICK1, Q9NRD5 = biological target: PICK1, Q9NRD5
DLG2_3, Q15700 = biological target: DLG2_3, Q15700
MAGI2_3, Q86UL8 = biological target: MAGI2_3, Q86UL8
LIN7C, Q9NUP9 = biological target: T5, LIN7C, Q9NUP9
LRRC7, Q96NW7 = biological target: T6, LRRC7, Q96NW7
NHERF4_2, Q86UT5 = biological target: NHERF4_2, Q86UT5
MAGI2_5, Q86UL8 = biological target: MAGI2_5, Q86UL8
DLG3_1, Q92796 = biological target: T7, DLG3_1, Q92796
Inadl_8, Q8NI35 = biological target: Inadl_8, Q8NI35
FRMPD4, Q14CM0 = biological target: FRMPD4, Q14CM0
LNX1_1, Q8TBB1 = biological target: LNX1_1, Q8TBB1
TJP2_1, Q9UDY2 = biological target: TJP2_1, Q9UDY2
TJP1_2, Q07157 = biological target: TJP1_2, Q07157
GRID2IP_2, A4D2P6 = biological target: GRID2IP_2, A4D2P6
Inadl_6, Q8NI35 = biological target: Inadl_6, Q8NI35
SNTB1, Q13884 = biological target: T8, SNTB1, Q13884
MPDZ_5, O75970 = biological target: T9, MPDZ_5, O75970
NHERF3_1, Q5T2W1 = biological target: T10, NHERF3_1, Q5T2W1
TJP3_3, O95049 = biological target: T11, TJP3_3, O95049

Sequence of Inadl_8, Q8NI35 (Q8NI35 1425-1530): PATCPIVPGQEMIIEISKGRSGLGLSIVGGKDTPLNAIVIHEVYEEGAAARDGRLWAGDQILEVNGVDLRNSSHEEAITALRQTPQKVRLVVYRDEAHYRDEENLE
Sequence of FRMPD4, Q14CM0 (Q14CM0 67-160): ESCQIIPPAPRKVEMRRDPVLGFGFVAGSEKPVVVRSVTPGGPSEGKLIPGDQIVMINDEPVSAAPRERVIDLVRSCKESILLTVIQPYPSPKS
Sequence of GRID2IP_2, A4D2P6 (A4D2P6 272-370): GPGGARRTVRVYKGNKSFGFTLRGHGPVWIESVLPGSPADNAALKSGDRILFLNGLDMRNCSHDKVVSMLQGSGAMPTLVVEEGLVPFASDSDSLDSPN
Sequence of TJP1_2, Q07157 (Q07157 181-274): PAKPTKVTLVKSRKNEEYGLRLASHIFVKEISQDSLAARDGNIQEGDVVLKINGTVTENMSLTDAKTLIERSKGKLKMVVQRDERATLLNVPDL
Sequence of MAGI2_5, Q86UL8 (Q86UL8 915-1017): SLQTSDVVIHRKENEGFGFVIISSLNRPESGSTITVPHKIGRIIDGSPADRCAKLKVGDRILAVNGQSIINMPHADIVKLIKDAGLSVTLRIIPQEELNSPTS
Sequence of FRMPD2_2, Q68DX3 (Q68DX3 944-1038): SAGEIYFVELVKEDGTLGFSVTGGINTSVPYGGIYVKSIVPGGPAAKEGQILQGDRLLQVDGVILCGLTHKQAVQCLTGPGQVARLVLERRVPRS
Sequence of PICK1, Q9NRD5 (Q9NRD5 17-115): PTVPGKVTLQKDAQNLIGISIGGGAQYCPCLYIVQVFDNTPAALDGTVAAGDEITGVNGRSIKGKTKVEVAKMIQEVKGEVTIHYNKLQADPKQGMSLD
Sequence of Inadl_6, Q8NI35 (Q8NI35 1058-1167): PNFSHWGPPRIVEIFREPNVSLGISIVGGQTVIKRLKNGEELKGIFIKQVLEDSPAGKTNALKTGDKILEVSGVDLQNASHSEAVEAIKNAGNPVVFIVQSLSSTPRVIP
Sequence of NHERF4_2, Q86UT5 (Q86UT5 220-308): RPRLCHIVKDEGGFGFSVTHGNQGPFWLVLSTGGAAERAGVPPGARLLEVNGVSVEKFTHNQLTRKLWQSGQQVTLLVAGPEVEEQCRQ
Sequence of MAGI2_3, Q86UL8 (Q86UL8 600-682): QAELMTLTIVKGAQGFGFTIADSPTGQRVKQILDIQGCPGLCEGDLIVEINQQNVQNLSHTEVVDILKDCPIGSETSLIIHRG
Sequence of TJP2_1, Q9UDY2 (Q9UDY2 24-128): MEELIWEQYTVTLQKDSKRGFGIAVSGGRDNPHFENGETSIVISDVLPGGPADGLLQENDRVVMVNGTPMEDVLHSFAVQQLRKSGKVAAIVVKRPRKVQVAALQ
Sequence of AHNAK1, Q09666 (Q09666 4-100): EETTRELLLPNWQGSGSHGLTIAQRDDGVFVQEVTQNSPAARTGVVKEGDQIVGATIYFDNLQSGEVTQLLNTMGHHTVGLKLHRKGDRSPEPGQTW
Sequence of Inadl_2, Q8NI35 (Q8NI35 238-335): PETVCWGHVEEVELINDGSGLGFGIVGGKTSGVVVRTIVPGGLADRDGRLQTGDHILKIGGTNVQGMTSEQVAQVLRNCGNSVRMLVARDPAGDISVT
Sequence of LNX1_1, Q8TBB1 (Q8TBB1 261-371): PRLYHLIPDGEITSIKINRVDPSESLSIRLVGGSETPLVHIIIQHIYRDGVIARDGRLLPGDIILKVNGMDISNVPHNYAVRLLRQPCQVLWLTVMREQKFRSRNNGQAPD

pKd (AHNAK1, Q09666)	pKd (Inadl_2, Q8NI35)	pKd (CARD11, Q9BXL7)	pKd (NHERF3_3, Q5T2W1)	pKd (DLG3_2, Q92796)	pKd (LIN7A, O14910)	pKd (FRMPD2_2, Q68DX3)	pKd (PICK1, Q9NRD5)	pKd (DLG2_3, Q15700)	pKd (MAGI2_3, Q86UL8)	pKd (LIN7C, Q9NUP9)	pKd (LRRC7, Q96NW7)	pKd (NHERF4_2, Q86UT5)	pKd (MAGI2_5, Q86UL8)	pKd (DLG3_1, Q92796)	pKd (Inadl_8, Q8NI35)	pKd (FRMPD4, Q14CM0)	pKd (LNX1_1, Q8TBB1)	pKd (TJP2_1, Q9UDY2)	pKd (TJP1_2, Q07157)	Binder	also measured
3.75	below the threshold	below the threshold	below the threshold	below the threshold	below the threshold	below the threshold	below the threshold	3.8	below the threshold	below the threshold	3.86	below the threshold	3.48	below the threshold	below the threshold	4.35	3.58	below the threshold	below the threshold	QSARYRDTEL [TJP2, Q9UDY2]	pKd (GRID2IP_2, A4D2P6): below the threshold; pKd (Inadl_6, Q8NI35): below the threshold; pKd (SNTB1, Q13884): 3.86; pKd (MPDZ_5, O75970): below the threshold; pKd (NHERF3_1, Q5T2W1): 4.33; pKd (TJP3_3, O95049): 3.55
below the threshold	below the threshold	below the threshold	below the threshold	4.64	below the threshold	3.72	below the threshold	4.71	below the threshold	3.94	below the threshold	below the threshold	4	3.96	below the threshold	below the threshold	below the threshold	below the threshold	below the threshold	VLRLQSETSV [VANGL1, Q8TAA9]	pKd (GRID2IP_2, A4D2P6): below the threshold; pKd (Inadl_6, Q8NI35): below the threshold; pKd (SNTB1, Q13884): 4.57; pKd (MPDZ_5, O75970): below the threshold; pKd (NHERF3_1, Q5T2W1): 3.98; pKd (TJP3_3, O95049): below the threshold
below the threshold	below the threshold	below the threshold	below the threshold	3.55	below the threshold	below the threshold	below the threshold	below the threshold	below the threshold	3.62	below the threshold	below the threshold	below the threshold	below the threshold	below the threshold	below the threshold	below the threshold	below the threshold	below the threshold	TVASEKESVM [SLC1A5, Q15758]	pKd (GRID2IP_2, A4D2P6): 3.7; pKd (Inadl_6, Q8NI35): below the threshold; pKd (SNTB1, Q13884): 4.07; pKd (MPDZ_5, O75970): below the threshold; pKd (NHERF3_1, Q5T2W1): 4.42; pKd (TJP3_3, O95049): below the threshold
below the threshold	below the threshold	below the threshold	below the threshold	4.14	below the threshold	below the threshold	below the threshold	3.77	below the threshold	3.51	below the threshold	below the threshold	below the threshold	3.69	below the threshold	3.78	below the threshold	below the threshold	below the threshold	PKTPPTDTSV [KIR3DL3, Q8N743]	pKd (GRID2IP_2, A4D2P6): below the threshold; pKd (Inadl_6, Q8NI35): below the threshold; pKd (SNTB1, Q13884): below the threshold; pKd (MPDZ_5, O75970): below the threshold; pKd (NHERF3_1, Q5T2W1): below the threshold; pKd (TJP3_3, O95049): below the threshold
below the threshold	below the threshold	below the threshold	below the threshold	4	below the threshold	below the threshold	below the threshold	below the threshold	below the threshold	below the threshold	below the threshold	below the threshold	4.37	below the threshold	below the threshold	4.48	below the threshold	below the threshold	below the threshold	GQDSREETQL [KCNT2, Q6UVM3]	pKd (GRID2IP_2, A4D2P6): 4.52; pKd (Inadl_6, Q8NI35): 4.19; pKd (SNTB1, Q13884): 4.49; pKd (MPDZ_5, O75970): below the threshold; pKd (NHERF3_1, Q5T2W1): 5.47; pKd (TJP3_3, O95049): below the threshold
